According to PMC5324674, “NBP35 interacts with DRE2 in the maturation of cytosolic iron‐sulphur proteins in Arabidopsis thaliana” (The Plant Journal, 2017):

Target: T1, Purified NBP35 (His‐tagged, from E. coli) (Arabidopsis thaliana, UniProt Q8H1Q2 1-350)
T1 construct: The SPR methods say only 'purified NBP35'; also called wild‐type NBP35; source: E. coli, purified (His-Trap HP column, desalted on PD10)
T1 sequence (looked up): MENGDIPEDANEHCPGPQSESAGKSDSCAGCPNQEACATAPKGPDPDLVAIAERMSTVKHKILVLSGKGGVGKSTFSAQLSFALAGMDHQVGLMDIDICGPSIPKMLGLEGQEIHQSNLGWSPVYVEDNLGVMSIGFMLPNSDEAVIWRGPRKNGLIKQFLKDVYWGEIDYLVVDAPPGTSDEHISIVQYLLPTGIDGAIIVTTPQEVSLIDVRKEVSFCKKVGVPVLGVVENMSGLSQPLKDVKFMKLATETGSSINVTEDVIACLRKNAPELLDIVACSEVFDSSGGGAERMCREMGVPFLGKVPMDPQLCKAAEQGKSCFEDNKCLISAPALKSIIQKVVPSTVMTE
Assay: SPR; Biacore T200, Streptavidin chip; Strep-tagged DRE2 captured from E. coli cell extract (about 1700 RU); purified NBP35 0-45 uM injected, multi-cycle; 25°C; 20 mM Tris-HCl pH 8, 0.15 M NaCl, 5% glycerol; equilibrium response, Affinity Fit, 1:1 model
Settings: one partner purified

B1: Strep‐tagged DRE2 (natural protein)
chain: not shown
notes: DRE2/CIAPIN1, Arabidopsis thaliana, AT5G18400; printed also as 'DRE2-Strep'; also called DRE2‐Strep; source: E. coli cell extract, captured on a Streptavidin sensor chip
Which Kd does the source give for B1 here?
The Kd was 3.3 ± 0.9 µM.
